Measured values as given in US20170319648A1.
Positions of bridges follow the written chain, without caps; N, C: chain ends. Non-standard residues stand in square brackets, D forms with d. No end group written: not given here. hCys = N[C@@H](CCS)C(=O)O; Orn = NCCC[C@H](N)C(=O)O; Dab = NCC[C@H](N)C(=O)O

Target: TEAD
Experiment: IC50 for TEAD binding; method not named in the example (TR-FRET test is the filing's screening method)

TEAD, sequence (P28347 209-426): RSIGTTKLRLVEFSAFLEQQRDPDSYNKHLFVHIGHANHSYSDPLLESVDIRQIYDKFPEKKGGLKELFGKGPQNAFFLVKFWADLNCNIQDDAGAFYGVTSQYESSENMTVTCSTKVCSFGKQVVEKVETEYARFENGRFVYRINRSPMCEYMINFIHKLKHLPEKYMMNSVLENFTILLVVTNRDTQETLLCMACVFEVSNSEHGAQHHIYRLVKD

IC50 [nM]	Binder
43	VPF[hCys]LR[Orn]LPDSFCKPPE (disulfide 4-13) [polypeptide of SEQ ID NO.: 5 (VPF(Hcy)LR(Orn)…)]
28	VPF[hCys]LR[Dab]LPDSFCKPPE (disulfide 4-13) [polypeptide of SEQ ID NO.: 6 (VPF(Hcy)LR(Dab)…)]
